According to the supplement of paper PMC10065799, “High-throughput profiling of sequence recognition by tyrosine kinases and SH2 domains using bacterial peptide display” (eLife, 2023):

Key:
AncSZ = test: phosphorylation enrichment, bacterial display (enrichment ratio); higher = better substrate or ligand; peptides without Tyr show the background
EPHB1 = EPHB1 (UniProt P54762); test: as above
EPHB2 = EPHB2 (UniProt P29323); test: as above
FGFR1 = FGFR1 (UniProt P11362); test: as above
FGFR3 = FGFR3 (UniProt P22607); test: as above
Fer (mouse) = test: as above
Fes = Fes (UniProt P07332); test: as above
Fyn = Fyn (UniProt P06241); test: as above
Hck = Hck (UniProt P08631); test: as above
Jak2 = Jak2 (UniProt O60674); test: as above
MERTK = MERTK (UniProt Q12866); test: as above
c-Abl (mouse) = test: as above
c-Src = test: as above
Grb2 SH2 = Grb2 SH2 (UniProt P62993); test: SH2 binding enrichment of the phosphorylated peptide, bacterial display (enrichment ratio); higher = better substrate or ligand; peptides without Tyr show the background
SHP2-C SH2 = test: as above
c-Src SH2 = test: as above
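For SH2 binding enrichment of the phosphorylated peptide, bacterial display in this document: peptide library displayed on the E. coli surface as eCPX fusions, selected cells deep-sequenced, score is each peptide's frequency after selection divided by its frequency in the input.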
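For phosphorylation enrichment, bacterial display in this document: 11-residue human phosphosite peptides and single-mutation variants displayed on the E. coli surface, counted by deep sequencing, each peptide's frequency after selection divided by its frequency in the unselected input library; frequency after pTyr selection over input frequency; kinase dosed for 20-30% of maximal phosphorylation in three min.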

Chain of EPHB2 (P29323 whole entry, looked up): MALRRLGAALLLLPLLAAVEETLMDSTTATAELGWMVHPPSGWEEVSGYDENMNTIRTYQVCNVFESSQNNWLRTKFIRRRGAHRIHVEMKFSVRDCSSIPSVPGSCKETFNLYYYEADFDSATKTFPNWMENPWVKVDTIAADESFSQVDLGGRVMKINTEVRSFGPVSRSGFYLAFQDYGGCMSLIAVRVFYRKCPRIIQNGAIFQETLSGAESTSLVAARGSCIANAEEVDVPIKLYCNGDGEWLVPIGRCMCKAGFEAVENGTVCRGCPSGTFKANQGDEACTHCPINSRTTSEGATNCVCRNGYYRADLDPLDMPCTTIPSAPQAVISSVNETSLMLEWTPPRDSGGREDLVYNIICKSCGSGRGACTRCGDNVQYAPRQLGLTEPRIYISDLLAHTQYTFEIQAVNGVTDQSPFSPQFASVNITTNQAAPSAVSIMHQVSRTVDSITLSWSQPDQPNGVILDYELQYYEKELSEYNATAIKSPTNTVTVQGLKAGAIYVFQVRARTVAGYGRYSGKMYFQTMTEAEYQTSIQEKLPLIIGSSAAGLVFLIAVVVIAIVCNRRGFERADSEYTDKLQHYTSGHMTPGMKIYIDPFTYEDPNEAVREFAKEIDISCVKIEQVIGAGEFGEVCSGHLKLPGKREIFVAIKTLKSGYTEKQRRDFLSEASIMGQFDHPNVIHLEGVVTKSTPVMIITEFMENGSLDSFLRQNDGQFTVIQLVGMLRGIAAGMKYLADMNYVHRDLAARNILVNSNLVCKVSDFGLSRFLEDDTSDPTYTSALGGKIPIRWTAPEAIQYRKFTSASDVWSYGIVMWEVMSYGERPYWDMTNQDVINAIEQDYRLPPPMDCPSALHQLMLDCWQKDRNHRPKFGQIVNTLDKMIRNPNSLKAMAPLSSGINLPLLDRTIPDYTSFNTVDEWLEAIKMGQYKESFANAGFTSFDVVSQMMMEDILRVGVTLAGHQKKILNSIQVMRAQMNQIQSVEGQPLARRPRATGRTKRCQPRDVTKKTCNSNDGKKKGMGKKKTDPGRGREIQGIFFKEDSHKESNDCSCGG
Chain of FGFR1 (P11362 whole entry, looked up): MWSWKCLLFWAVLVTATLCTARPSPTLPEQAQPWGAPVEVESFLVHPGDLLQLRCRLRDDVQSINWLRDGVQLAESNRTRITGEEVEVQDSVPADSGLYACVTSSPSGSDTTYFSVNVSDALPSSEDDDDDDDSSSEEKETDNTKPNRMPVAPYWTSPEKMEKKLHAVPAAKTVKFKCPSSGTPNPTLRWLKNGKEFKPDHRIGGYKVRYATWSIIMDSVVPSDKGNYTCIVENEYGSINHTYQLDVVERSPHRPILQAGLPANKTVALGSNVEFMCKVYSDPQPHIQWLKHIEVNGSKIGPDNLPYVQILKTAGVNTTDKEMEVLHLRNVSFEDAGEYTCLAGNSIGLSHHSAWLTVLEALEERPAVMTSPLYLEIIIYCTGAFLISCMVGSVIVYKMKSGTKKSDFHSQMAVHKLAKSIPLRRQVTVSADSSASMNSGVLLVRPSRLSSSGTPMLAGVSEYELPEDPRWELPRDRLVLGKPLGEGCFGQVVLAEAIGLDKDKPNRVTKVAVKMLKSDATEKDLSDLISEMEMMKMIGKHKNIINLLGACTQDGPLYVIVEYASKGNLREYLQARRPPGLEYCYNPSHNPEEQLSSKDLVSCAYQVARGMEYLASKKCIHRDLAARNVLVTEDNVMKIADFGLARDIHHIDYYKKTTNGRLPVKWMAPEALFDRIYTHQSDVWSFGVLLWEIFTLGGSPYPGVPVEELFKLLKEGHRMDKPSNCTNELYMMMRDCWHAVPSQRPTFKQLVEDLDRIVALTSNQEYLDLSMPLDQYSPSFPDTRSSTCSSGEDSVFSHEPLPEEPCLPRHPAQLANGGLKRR
Chain of Grb2 SH2 (P62993 whole entry, looked up): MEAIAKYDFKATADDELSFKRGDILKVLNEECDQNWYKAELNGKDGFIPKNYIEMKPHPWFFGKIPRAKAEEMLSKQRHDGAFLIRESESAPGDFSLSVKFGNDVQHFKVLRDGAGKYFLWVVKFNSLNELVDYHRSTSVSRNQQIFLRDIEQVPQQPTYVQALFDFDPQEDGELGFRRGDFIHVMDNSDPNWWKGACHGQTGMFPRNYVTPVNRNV
Chain of EPHB1 (P54762 whole entry, looked up): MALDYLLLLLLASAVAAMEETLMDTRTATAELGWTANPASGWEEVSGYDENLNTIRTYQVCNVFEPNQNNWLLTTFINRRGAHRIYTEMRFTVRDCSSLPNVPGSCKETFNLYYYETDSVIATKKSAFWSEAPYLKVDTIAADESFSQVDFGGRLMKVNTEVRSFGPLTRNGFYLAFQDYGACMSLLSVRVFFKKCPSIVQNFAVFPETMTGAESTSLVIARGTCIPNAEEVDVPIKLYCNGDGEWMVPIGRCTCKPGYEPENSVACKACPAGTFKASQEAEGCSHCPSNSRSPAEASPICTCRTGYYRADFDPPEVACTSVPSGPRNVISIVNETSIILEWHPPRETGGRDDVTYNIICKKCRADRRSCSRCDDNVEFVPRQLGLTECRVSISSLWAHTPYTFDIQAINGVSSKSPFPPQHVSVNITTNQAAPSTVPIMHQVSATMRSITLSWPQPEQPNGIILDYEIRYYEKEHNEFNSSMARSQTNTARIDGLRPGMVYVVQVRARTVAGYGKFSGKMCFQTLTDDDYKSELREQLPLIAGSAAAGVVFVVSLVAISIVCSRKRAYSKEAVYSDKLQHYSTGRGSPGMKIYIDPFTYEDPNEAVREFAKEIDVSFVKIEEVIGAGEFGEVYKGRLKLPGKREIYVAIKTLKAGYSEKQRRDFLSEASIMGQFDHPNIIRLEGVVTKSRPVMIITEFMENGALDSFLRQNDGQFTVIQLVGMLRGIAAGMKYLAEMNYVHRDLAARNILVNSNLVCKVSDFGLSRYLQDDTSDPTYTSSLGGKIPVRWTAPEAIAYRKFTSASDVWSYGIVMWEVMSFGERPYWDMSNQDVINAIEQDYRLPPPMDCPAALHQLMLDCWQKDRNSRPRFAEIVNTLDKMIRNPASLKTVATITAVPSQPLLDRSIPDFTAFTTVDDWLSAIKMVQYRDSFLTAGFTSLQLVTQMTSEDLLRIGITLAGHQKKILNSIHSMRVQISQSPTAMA
Chain of Fes (P07332 whole entry, looked up): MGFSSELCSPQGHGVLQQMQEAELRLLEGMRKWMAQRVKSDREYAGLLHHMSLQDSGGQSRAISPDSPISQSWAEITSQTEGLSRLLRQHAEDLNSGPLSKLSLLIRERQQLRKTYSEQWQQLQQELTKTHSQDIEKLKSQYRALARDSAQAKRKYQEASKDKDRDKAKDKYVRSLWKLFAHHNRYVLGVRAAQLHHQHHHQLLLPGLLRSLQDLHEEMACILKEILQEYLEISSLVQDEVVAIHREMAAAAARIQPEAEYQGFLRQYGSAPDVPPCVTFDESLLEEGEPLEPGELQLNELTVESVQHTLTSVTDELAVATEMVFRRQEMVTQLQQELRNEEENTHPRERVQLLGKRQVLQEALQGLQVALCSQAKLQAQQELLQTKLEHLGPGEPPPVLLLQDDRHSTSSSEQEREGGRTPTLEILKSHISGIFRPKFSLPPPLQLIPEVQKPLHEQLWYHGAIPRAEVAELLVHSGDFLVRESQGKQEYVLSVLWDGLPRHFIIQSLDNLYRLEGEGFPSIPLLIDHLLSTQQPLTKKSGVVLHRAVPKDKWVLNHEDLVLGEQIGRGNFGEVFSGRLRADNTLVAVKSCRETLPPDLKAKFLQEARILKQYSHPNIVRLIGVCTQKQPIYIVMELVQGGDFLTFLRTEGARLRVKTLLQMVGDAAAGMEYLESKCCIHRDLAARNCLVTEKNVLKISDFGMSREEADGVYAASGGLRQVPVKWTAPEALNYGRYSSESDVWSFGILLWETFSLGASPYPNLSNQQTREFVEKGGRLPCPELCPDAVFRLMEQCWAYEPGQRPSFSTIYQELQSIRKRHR
Chain of FGFR3 (P22607 whole entry, looked up): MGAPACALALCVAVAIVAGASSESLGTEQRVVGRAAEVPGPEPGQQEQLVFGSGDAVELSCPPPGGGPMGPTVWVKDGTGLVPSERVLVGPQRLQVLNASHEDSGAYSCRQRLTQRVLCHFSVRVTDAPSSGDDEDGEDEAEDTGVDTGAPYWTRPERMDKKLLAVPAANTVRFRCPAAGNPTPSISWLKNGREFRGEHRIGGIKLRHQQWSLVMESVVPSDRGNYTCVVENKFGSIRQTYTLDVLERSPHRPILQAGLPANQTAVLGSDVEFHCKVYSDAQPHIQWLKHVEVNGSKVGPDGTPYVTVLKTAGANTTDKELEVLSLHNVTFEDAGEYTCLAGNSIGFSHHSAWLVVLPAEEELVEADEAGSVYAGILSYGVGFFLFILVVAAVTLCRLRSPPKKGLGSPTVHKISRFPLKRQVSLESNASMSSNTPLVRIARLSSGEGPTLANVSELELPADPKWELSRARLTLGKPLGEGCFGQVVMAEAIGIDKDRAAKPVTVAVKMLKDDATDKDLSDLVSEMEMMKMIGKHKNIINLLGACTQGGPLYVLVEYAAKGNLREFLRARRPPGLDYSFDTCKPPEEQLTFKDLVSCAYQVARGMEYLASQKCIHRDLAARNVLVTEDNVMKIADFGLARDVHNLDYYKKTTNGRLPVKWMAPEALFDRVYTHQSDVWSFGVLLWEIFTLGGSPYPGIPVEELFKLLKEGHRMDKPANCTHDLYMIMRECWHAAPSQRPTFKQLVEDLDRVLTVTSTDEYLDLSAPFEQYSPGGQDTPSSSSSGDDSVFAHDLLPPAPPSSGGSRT

Row | Sequence | phosphorylation enrichment (AncSZ) | phosphorylation enrichment (EPHB1) | phosphorylation enrichment (EPHB2) | phosphorylation enrichment (FGFR1) | phosphorylation enrichment (FGFR3) | phosphorylation enrichment (Fer (mouse)) | phosphorylation enrichment (Fes) | phosphorylation enrichment (Fyn) | phosphorylation enrichment (Hck) | phosphorylation enrichment (Jak2) | phosphorylation enrichment (MERTK) | phosphorylation enrichment (c-Abl (mouse)) | phosphorylation enrichment (c-Src) | SH2 binding enrichment (Grb2 SH2) | SH2 binding enrichment (SHP2-C SH2) | SH2 binding enrichment (c-Src SH2)
1 | STFVPYEIKVQ [L1CAM_Y784] | 0.906 | 0.564 | 0.512 | 0.506 | 0.629 | 0.527 | 0.996 | 0.538 | 0.475 | 0.805 | 0.338 | 0.678 | 0.393 | 0.85 | 0.726 | 0.552
2 | RAIGFYSATSK [FAM120A_Y328_YF] | 1.51 | 0.46 | 0.81 | 0.545 | 0.805 | 0.911 | 1.03 | 0.685 | 0.774 | 0.889 | 1.03 | 1.26 | 0.59 | 0.989 | 0.95 | 0.886
3 | RGDSAYHSQRH [ERBB3_Y1132] | 0.51 | 0.534 | 0.469 | 0.401 | 0.427 | 0.569 | 0.731 | 0.455 | 0.305 | 0.288 | 0.357 | 0.453 | 0.462 | 1.11 | 0.65 | 0.819
4 | TKQLTYEEQYL [PIK3C3_Y310_D314Y] | 0.95 | 0.551 | 0.603 | 0.434 | 0.766 | 0.965 | 1.18 | 0.45 | 0.524 | 1.37 | 0.593 | 0.825 | 0.732 | 0.894 | 0.747 | 0.538
5 | SSAAGYACLAY [MVD_Y131] | 0.9 | 0.553 | 0.615 | 0.547 | 0.736 | 0.574 | 1.07 | 0.531 | 0.575 | 1.02 | 0.498 | 0.897 | 0.593 | 0.721 | 3.04 | 2.42
6 | PESCLYKESWI [IQGAP2_Y630_L635I] | 1.18 | 0.931 | 1.2 | 1.25 | 1.17 | 1.26 | 1.97 | 0.493 | 0.872 | 1.54 | 0.6 | 1.48 | 0.825 | 0.827 | 0.315 | 0.532
7 | AGREEYSAMRD [KRAS_Y64_Q61R] | 0.787 | 0.506 | 0.546 | 0.472 | 0.575 | 0.453 | 0.834 | 0.479 | 0.508 | 0.686 | 0.425 | 0.655 | 0.421 | 0.98 | 0.598 | 1.02
8 | EYHRLYEEYTR [PIK3R1_Y467_D464H] | 1.45 | 3.87 | 5.18 | 2.52 | 1.61 | 2.31 | 0.898 | 5.5 | 5.42 | 0.978 | 2.48 | 0.653 | 4.19 | 0.96 | 0.718 | 1.86
9 | EVDETYVPKKF [ALB_Y521_E525K] | 0.947 | 0.685 | 0.372 | 0.385 | 0.518 | 0.371 | 0.952 | 0.454 | 0.446 | 1.01 | 0.404 | 0.607 | 0.408 | 1.06 | 0.775 | 0.613
10 | QKINKYLTVPA [SLC9A1_Y683_N682K] | 1.77 | 0.282 | 0.67 | 0.659 | 0.854 | 0.567 | 0.625 | 0.461 | 0.356 | 0.588 | 0.52 | 0.462 | 0.762 | 0.958 | 0.813 | 0.607
11 | RGESFYQDRMN [RARS_Y338] | 0.746 | 0.463 | 0.392 | 0.534 | 0.512 | 0.603 | 0.996 | 0.411 | 0.631 | 0.899 | 0.469 | 0.726 | 0.541 | 0.794 | 0.725 | 0.461
12 | GVFSRYFTTFD [CLCA1_Y661_YF] | 0.954 | 0.458 | 0.512 | 0.468 | 0.631 | 0.433 | 0.959 | 0.438 | 0.661 | 1.15 | 0.393 | 0.679 | 0.481 | 0.891 | 0.789 | 0.395
13 | ALAHKYHGGGG [HBB_Y146] | 0.621 | 0.333 | 0.349 | 0.537 | 0.343 | 0.361 | 0.578 | 0.426 | 0.417 | 0.503 | 0.461 | 0.534 | 0.383 | 0.756 | 0.63 | 0.43
14 | SNYRAYATEPH [TNNI3_Y29] | 0.49 | 0.372 | 0.452 | 0.422 | 0.447 | 0.379 | 0.475 | 0.404 | 0.382 | 0.435 | 0.397 | 0.503 | 0.362 | 0.869 | 0.551 | 0.378
15 | EGTATYAAAVL [JUP_Y644] | 0.587 | 0.561 | 1.24 | 0.394 | 0.458 | 1.06 | 0.661 | 0.858 | 0.987 | 0.501 | 0.438 | 0.639 | 0.897 | 0.847 | 0.722 | 0.493
16 | FHKALYTVRSF [PDE6C_Y266_YF] | 0.708 | 0.612 | 0.489 | 0.462 | 0.549 | 0.394 | 0.942 | 0.43 | 0.557 | 0.674 | 0.378 | 0.666 | 0.389 | 0.784 | 0.648 | 0.459
17 | GRVYVYRLSEQ [ITGAE_Y551] | 0.858 | 0.539 | 0.471 | 0.411 | 0.661 | 0.508 | 1.04 | 0.568 | 0.462 | 0.83 | 0.4 | 0.683 | 0.725 | 1.41 | 11.3 | 1.16

Row | Sequence | phosphorylation enrichment (AncSZ) | phosphorylation enrichment (EPHB1) | phosphorylation enrichment (EPHB2) | phosphorylation enrichment (FGFR1) | phosphorylation enrichment (FGFR3) | phosphorylation enrichment (Fer (mouse)) | phosphorylation enrichment (Fes) | phosphorylation enrichment (Fyn) | phosphorylation enrichment (Hck) | phosphorylation enrichment (Jak2) | phosphorylation enrichment (MERTK) | phosphorylation enrichment (c-Abl (mouse)) | phosphorylation enrichment (c-Src) | SH2 binding enrichment (Grb2 SH2) | SH2 binding enrichment (SHP2-C SH2) | SH2 binding enrichment (c-Src SH2)
18 | VHYLVYHHHHH [CACNA1H_Y519_H516Y] | 1.17 | 0.687 | 0.666 | 0.7 | 1.07 | 0.678 | 2.17 | 0.537 | 0.632 | 1.49 | 0.773 | 1.4 | 0.587 | 0.985 | 1.45 | 1
19 | FFIMMYTGSNV [DNAJC13_Y1131] | 1.3 | 0.681 | 0.664 | 0.619 | 0.782 | 0.589 | 1.29 | 0.433 | 0.505 | 1.06 | 0.477 | 0.779 | 0.4 | 0.9 | 0.732 | 0.508
20 | SLALFYRNVYH [RBL1_Y792_K794N] | 0.923 | 0.511 | 0.433 | 0.603 | 0.741 | 0.45 | 1.25 | 0.419 | 0.524 | 0.869 | 0.382 | 0.576 | 0.381 | 0.743 | 0.566 | 0.446
21 | KNKELYSDPFD [PDE10A_Y300_L303P] | 0.877 | 0.878 | 1.37 | 0.706 | 0.935 | 0.983 | 0.886 | 0.443 | 0.824 | 0.763 | 0.786 | 0.592 | 0.629 | 0.623 | 0.805 | 0.672
22 | APQYTYAQGGQ [FLNA_Y1763] | 0.72 | 0.373 | 0.43 | 0.453 | 0.53 | 0.409 | 0.643 | 0.486 | 0.509 | 0.54 | 0.486 | 0.54 | 0.455 | 0.778 | 1.26 | 2.62
23 | SSNLYYRWLTA [CNGA3_Y169] | 1.04 | 1.52 | 1.91 | 6.93 | 6.24 | 1.98 | 0.897 | 2 | 4.9 | 4.69 | 8.61 | 3.22 | 2.87 | 0.791 | 0.763 | 0.545
24 | ILGLEYSLRLP [HELZ2_Y1304_V1308L] | 1.37 | 0.814 | 0.56 | 0.542 | 0.942 | 0.649 | 1.44 | 0.628 | 0.479 | 1.33 | 0.5 | 0.937 | 1.08 | 0.877 | 0.648 | 0.401
25 | TLKDVCDDGKF [RPS6KA3_Y483_Y483C_YF] | 1.03 | 0.555 | 0.545 | 0.583 | 0.601 | 0.523 | 1.1 | 0.446 | 0.427 | 0.873 | 0.498 | 0.885 | 0.433 | 1.16 | 0.809 | 0.66
26 | GLRFGYGVLGG [KRTAP20-2_Y15_YF] | 0.742 | 0.413 | 0.488 | 0.358 | 0.574 | 0.387 | 0.782 | 0.548 | 0.376 | 0.562 | 0.311 | 0.519 | 0.434 | 0.674 | 0.893 | 0.493
27 | GQKVAYGGTGD [ALDH3A1_Y305] | 0.582 | 0.268 | 0.342 | 0.354 | 0.416 | 0.384 | 0.558 | 0.349 | 0.387 | 0.417 | 0.412 | 0.569 | 0.371 | 0.756 | 0.608 | 0.48
28 | CPSLPYSPVSS [CAMKK2_Y128] | 0.813 | 0.491 | 0.607 | 0.588 | 0.7 | 3.14 | 0.847 | 0.545 | 0.497 | 0.905 | 0.527 | 0.654 | 0.787 | 0.978 | 0.855 | 0.712
29 | KIIRRYVSSEG [ANK2_Y3907] | 0.509 | 0.321 | 0.358 | 0.384 | 0.34 | 0.365 | 0.479 | 0.41 | 0.371 | 0.531 | 0.351 | 0.416 | 0.458 | 0.637 | 0.533 | 0.421
30 | RLNWIYFKDQT [RS1_Y165_YF] | 2.98 | 1.08 | 0.918 | 1.17 | 1.35 | 0.774 | 2.3 | 0.757 | 1.02 | 2.15 | 0.49 | 1.35 | 0.855 | 1.01 | 1.01 | 0.842
31 | CTIIHYNYMCN [TP53_Y234_T231I] | 0.963 | 0.723 | 0.694 | 0.583 | 0.798 | 0.633 | 1 | 0.588 | 0.521 | 0.829 | 0.419 | 0.534 | 0.452 | 1.76 | 1.76 | 2.11
32 | GRQGIYTENKR [GPR143_Y231_E235K] | 0.723 | 0.349 | 0.347 | 0.477 | 0.477 | 0.346 | 0.585 | 0.372 | 0.437 | 0.527 | 0.53 | 0.46 | 0.529 | 0.874 | 0.762 | 0.61
33 | LNEQHYGGLTG [PGAM4_Y92_R90Q] | 0.752 | 0.949 | 0.574 | 0.659 | 0.972 | 0.769 | 1.2 | 0.956 | 0.902 | 0.915 | 0.845 | 1.5 | 1.04 | 0.958 | 0.761 | 0.518
